This note sets out measurements from PMC7427332, “Tuning Transcription Factor Availability through Acetylation-Mediated Genomic Redistribution”.

Numbering of substitutions follows the chain as printed.

The target of data set [1] is T1, MITF DNA-binding domain K243Q (mouse? (MITF mouse cDNA stated for …, UniProt Q08874 287-403, K350Q)). The data set is described as follows: fluorescence anisotropy; FA: 10 mM Tris/HCl pH 7.5, 300 mM NaCl, 0.01% Triton X-100, 0.1 mg/mL BSA, 1.33 nM DNA, 25 C, 5 min; EMSA: 25 mM HEPES pH 7.4, 150 mM KCl, 10% glycerol, 200 ug/ml BSA, 5 uM DTT, 20 min, 6% native gel. Conditions: protein: recombinant; tags: His (Ni-NTA purified; pETM-11 vector); chain copies: 2; label: 3'-fluorescein on strand 1; blunt. In general terms: In fluorescence polarisation assays a small probe gives low polarisation when free and higher when bound to something large.
T1 sequence (Q08874 287-403 K350Q): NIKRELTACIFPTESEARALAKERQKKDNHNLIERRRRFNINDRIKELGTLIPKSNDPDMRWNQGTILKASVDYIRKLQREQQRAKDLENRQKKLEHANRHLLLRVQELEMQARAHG

Data set [2] concerns the target T2, MITF DNA-binding domain K243R (mouse? (MITF mouse cDNA stated for …, UniProt Q08874 287-403, K350R)). The data set is described as above. Conditions: protein: recombinant; tags: His (Ni-NTA purified; pETM-11 vector); chain copies: 2; label: 3'-fluorescein on strand 1; blunt.
Data set [3] addresses T3, MITF DNA-binding domain WT (bHLH-LZ) (mouse? (MITF mouse cDNA stated for …, UniProt Q08874 287-403)). The data set is described as follows: competition; competing N5 in EMSA; FA: 10 mM Tris/HCl pH 7.5, 300 mM NaCl, 0.01% Triton X-100, 0.1 mg/mL BSA, 1.33 nM DNA, 25 C, 5 min; EMSA: 25 mM HEPES pH 7.4, 150 mM KCl, 10% glycerol, 200 ug/ml BSA, 5 uM DTT, 20 min, 6% native gel. Conditions: protein: recombinant; tags: His (Ni-NTA purified; pETM-11 vector); chain copies: 2; blunt. (In general: In EMSA bound probe runs differently from free probe, usually more slowly.)

The target of data set [4] is T2, MITF DNA-binding domain K243R. The data set is described as above. Conditions: protein: recombinant; tags: His (Ni-NTA purified; pETM-11 vector); chain copies: 2; blunt.
Data set [5] addresses T1, MITF DNA-binding domain K243Q. The description is as above. Conditions: protein: recombinant; tags: His (Ni-NTA purified; pETM-11 vector); chain copies: 2; blunt.
The target of data set [6] is T3, MITF DNA-binding domain WT (bHLH-LZ). Kind of data set: competition; competing N5 in EMSA; low-affinity motif; FA: 10 mM Tris/HCl pH 7.5, 300 mM NaCl, 0.01% Triton X-100, 0.1 mg/mL BSA, 1.33 nM DNA, 25 C, 5 min; EMSA: 25 mM HEPES pH 7.4, 150 mM KCl, 10% glycerol, 200 ug/ml BSA, 5 uM DTT, 20 min, 6% native gel. Conditions: protein: recombinant; tags: His (Ni-NTA purified; pETM-11 vector); chain copies: 2; blunt.

The target in data set [7] is T2, MITF DNA-binding domain K243R. The description is as above. Conditions: protein: recombinant; tags: His (Ni-NTA purified; pETM-11 vector); chain copies: 2; blunt.
In data set [8] the target is T3, MITF DNA-binding domain WT (bHLH-LZ). Kind of data set: fluorescence anisotropy; FA: 10 mM Tris/HCl pH 7.5, 300 mM NaCl, 0.01% Triton X-100, 0.1 mg/mL BSA, 1.33 nM DNA, 25 C, 5 min; EMSA: 25 mM HEPES pH 7.4, 150 mM KCl, 10% glycerol, 200 ug/ml BSA, 5 uM DTT, 20 min, 6% native gel. Conditions: protein: recombinant; tags: His (Ni-NTA purified; pETM-11 vector); chain copies: 2; label: 3'-fluorescein on strand 1; blunt.

In data set [9] the target is T1, MITF DNA-binding domain K243Q. The data set is described as above. Conditions: protein: recombinant; tags: His (Ni-NTA purified; pETM-11 vector); chain copies: 2; label: 3'-fluorescein on strand 1; blunt. The source holds these as a separate data set.
Data set [10] has the same target. The data set is described as above. Conditions: protein: recombinant; tags: His (Ni-NTA purified; pETM-11 vector); chain copies: 2; label: 3'-fluorescein on strand 1; blunt. The source holds these as a separate data set.

T2 sequence (Q08874 287-403 K350R): as the sequence (Q08874 287-403 K350Q) above, with Q64R counted along it
T3 sequence (Q08874 287-403): as the sequence (Q08874 287-403 K350Q) above, with Q64K counted along it

B1: E-box FA probe (dsDNA)
DNA 1: GAGACCACGTGTTGAC
DNA 2: GTCAACACGTGGTCTC
Turning to B1, the values for the binding signal in data set [1] and in data set [2] were 21 fold lower affinity than WT protein on same site and ~4 fold lower affinity than WT protein on same site, respectively.

B2: TCACGTGA cold competitor (dsDNA)
DNA 1: CTAGACTTGTGGAGATCACGTGATGACTTCCTGATTCCT
DNA 2: AGGAATCAGGAAGTCATCACGTGATCTCCACAAGTCTAG
Take B2: the binding result in data set [3], in data set [4] and in [5] was “binds” in each case.

B3: TCACGTTA cold competitor (dsDNA)
DNA 1: B2 DNA 1 with G22T
DNA 2: B2 DNA 2 with C18A
In the case of B3, the binding result in data set [5] is on record as “no binding”; in [6] it was “binds”; in [7] it was “binds”.

B4: Consensus CLEAR box FA probe (dsDNA)
DNA 1: GAGATCACGTGATGAC
DNA 2: GTCATCACGTGATCTC
Regarding B4, in data set [8], the binding result was “binds”. In addition, the values for the binding signal in [9] and in data set [2] were ~7 fold lower affinity than WT protein on same site and ~4 fold lower affinity than WT protein on same site, respectively.

B5: M-box FA probe (dsDNA)
DNA 1: GAGATCATGTGTTGAC
DNA 2: GTCAACACATGATCTC
B5: the binding signal in [10] is 35 fold lower affinity than WT protein on same site; in data set [2], ~4 fold lower affinity than WT protein on same site.
